The target in the data set is T1, PUF4 RNA-binding domain (Saccharomyces cerevisiae, UniProt P25339 537-888).
T1 sequence: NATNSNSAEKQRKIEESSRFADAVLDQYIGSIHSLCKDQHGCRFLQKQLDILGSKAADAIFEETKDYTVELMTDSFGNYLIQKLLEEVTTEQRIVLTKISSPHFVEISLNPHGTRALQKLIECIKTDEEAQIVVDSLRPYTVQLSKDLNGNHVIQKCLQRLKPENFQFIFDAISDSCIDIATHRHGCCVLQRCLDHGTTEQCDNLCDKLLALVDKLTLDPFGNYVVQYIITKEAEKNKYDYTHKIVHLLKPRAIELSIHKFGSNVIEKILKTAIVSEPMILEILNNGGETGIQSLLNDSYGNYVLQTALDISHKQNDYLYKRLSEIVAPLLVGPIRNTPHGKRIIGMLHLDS
Nature of the data set: Mg; RNA-MaP; 20 mM Na-HEPES pH 7.4, 30 mM KOAc, 0.75 mM MgCl2, 0.1% Tween-20, 5% glycerol, 0.1 mg/mL BSA, 2 mM DTT; 25 C; 0.0125-409.6 nM protein. The following applies: tags: N-His6-TEV cleaved; C-SNAP kept, Cy3B-labelled; label: tethered on chip by stalled RNA polymerase.

Changes are numbered by the printed parent chain. Names may count otherwise.

One may read the Kd as the equilibrium constant for the complex coming apart.

B1: Ie_S2_P3E.2_K3.1_C3.2_H3.1_[+3CC]_A3.1_F3.1_T3.2 (ssRNA)
RNA: UUUGAUUAAUAUGAUAUCGUUCUUUCUCUUGUCCAUAUAUAUUCUUUCUCGAUAUCAUAUUAAUCUUU
As for B1, the affinity, expressed as Kd, was 34 nM. That is a double-digit nanomolar value.

B2: Ie_S2_P3E.2_K3.1_C3.2_H3.1_[+4CC]_A3.1_F3.1_T3.2 (ssRNA)
RNA: B1 RNA with C33A, A35C
On to B2, for which binding was put at a Kd of 2.33 nM.

B3: Ie_S2_P3E.2_K3.1_C3.2_H3.1_[+3TC]_A3.1_F3.1_T3.2 (ssRNA)
RNA: B1 RNA with C33U
Molecule B3 registered a Kd of 12.9 nM.

B4: Ie_S2_P3E.2_K3.1_C3.2_H3.1_A3.1_F3.1_[+7CT]_T3.2 (ssRNA)
RNA: B1 RNA with C33A, C34U, A37C
On to B4, for which binding was put at a Kd of 3.3 nM.

B5: Ie_S2_P3E.2_K3.1_C3.2_H3.1_A3.1_F3.1_[+7CC]_T3.2 (ssRNA)
RNA: B1 RNA with C33A, C34U, A37C, U38C
B5 returned a Kd of 17.5 nM.

B6: Ie_S2_P3E.2_K3.1_C3.2_H3.1_A3.1_[+5CC]_F3.1_T3.2 (ssRNA)
RNA: B1 RNA with C33A, C34U, A35C, U36C
On to B6, for which the affinity, expressed as Kd, was 7.04 nM.

B7: Ie_S2_P3E.2_K3.1_C3.2_H3.1_A3.1_[+5CT]_F3.1_T3.2 (ssRNA)
RNA: B1 RNA with C33A, C34U, A35C
B7: the Kd amounted to 3.75 nM.

B8: Ie_S2_P3E.2_K3.1_C3.2_H3.1_[+2CTCT]_A3.1_F3.1_T3.2 (ssRNA)
RNA: UUUGAUUAAUAUGAUAUCGUUCUUUCUCUUGCUCUUAUAUAUAUUCUUUCUCGAUAUCAUAUUAAUCUUU
Molecule B8 returned a Kd of 62.1 nM.

B9: Ie_S2_P3E.2_K3.1_C3.2_H3.1_[+3CCTC]_A3.1_F3.1_T3.2 (ssRNA)
RNA: B8 RNA with C32U, U33C, U36C
B9 came in with a Kd of 62.8 nM.

B10: Ie_S2_P3E.2_K3.1_C3.2_H3.1_[+4CCTC]_A3.1_F3.1_T3.2 (ssRNA)
RNA: B8 RNA with C32U, U33A, U35C, A37C
Molecule B10 had a Kd of 4.82 nM.

B11: Ie_S2_P3E.2_K3.1_C3.2_H3.1_[+2CCCT]_A3.1_F3.1_T3.2 (ssRNA)
RNA: B8 RNA with U33C
B11 came in with a Kd of 67.5 nM.

B12: Ie_S2_P3E.2_K3.1_C3.2_H3.1_[+3CTCT]_A3.1_F3.1_T3.2 (ssRNA)
RNA: B8 RNA with C32U, U33C, C34U, U35C
B12 had a Kd of 21.2 nM. This Kd lies about 3.2-fold lower than the previous one.

B13: Ie_S2_P3E.2_K3.1_C3.2_H3.1_[+2CCTC]_A3.1_F3.1_T3.2 (ssRNA)
RNA: B8 RNA with U33C, C34U, U35C
As to B13, the affinity, expressed as Kd, was 162 nM.

B14: Ie_S2_P3E.2_K3.1_C3.2_H3.1_[+4CCCT]_A3.1_F3.1_T3.2 (ssRNA)
RNA: B8 RNA with C32U, U33A, U35C, U36C, A37U
B14 registered a Kd of 2.61 nM.

B15: Ie_S2_P3E.2_K3.1_C3.2_H3.1_[+4CTCT]_A3.1_F3.1_T3.2 (ssRNA)
RNA: B8 RNA with C32U, U33A, U36C, A37U
Regarding B15, binding was characterised by a dissociation constant (Kd) of 3.27 nM.

B16: Ie_S2_P3E.2_K3.1_C3.2_H3.1_[+3CCCT]_A3.1_F3.1_T3.2 (ssRNA)
RNA: B8 RNA with C32U, U33C, U35C
Molecule B16 came in with a Kd of 30.4 nM.

B17: Ie_S2_P3E.2_K3.1_C3.2_H3.1_[+4C]_A3.1_F3.1_T3.2 (ssRNA)
RNA: UUUGAUUAAUAUGAUAUCGUUCUUUCUCUUGUACUAUAUAUUCUUUCUCGAUAUCAUAUUAAUCUUU
As for B17, the Kd stood at 0.5 nM.

B18: Ie_S2_P3E.2_K3.1_C3.2_H3.1_A3.1_[+6C]_F3.1_T3.2 (ssRNA)
RNA: B17 RNA with C34U, U35A, A36C
Turning to B18, the Kd is 0.437 nM.

B19: Ie_S2_P3E.2_K3.1_C3.2_H3.1_A3.1_F3.1_[+7C]_T3.2 (ssRNA)
RNA: B17 RNA with C34U, U35A, A36U, U37C
For B19, the Kd amounted to 5.11 nM.

B20: Ie_S2_P3E.2_K3.1_C3.2_H3.1_A3.1_[+5T]_F3.1_T3.2 (ssRNA)
RNA: B17 RNA with C34U
In the case of B20, binding was characterised by a dissociation constant (Kd) of 1.52 nM. This Kd is about 3.4-fold lower than that of the molecule before.

B21: Ie_S2_P3E.2_K3.1_C3.2_H3.1_A3.1_[+5C]_F3.1_T3.2 (ssRNA)
RNA: B17 RNA with C34U, U35C
In turn, B21 returned a Kd of 0.639 nM.

B22: Ie_S2_P3E.2_K3.1_C3.2_H3.1_[+2CTC]_A3.1_F3.1_T3.2 (ssRNA)
RNA: UUUGAUUAAUAUGAUAUCGUUCUUUCUCUUGCUCUAUAUAUAUUCUUUCUCGAUAUCAUAUUAAUCUUU
B22 came in with a Kd of 63.2 nM.

B23: Ie_S2_P3E.2_K3.1_C3.2_H3.1_[+3TTC]_A3.1_F3.1_T3.2 (ssRNA)
RNA: B22 RNA with C32U, C34U, U35C
As to B23, the Kd came to 8.9 nM.

B24: Ie_S2_P3E.2_K3.1_C3.2_H3.1_[+4CCC]_A3.1_F3.1_T3.2 (ssRNA)
RNA: B22 RNA with C32U, U33A, U35C, A36C
Molecule B24 gave a Kd of 1.82 nM.

B25: Ie_S2_P3E.2_K3.1_C3.2_H3.1_A3.1_F3.1_[+7CCC]_T3.2 (ssRNA)
RNA: B22 RNA with C32U, U33A, C34U, U35A, A36U, U37C, A38C, U39C
For B25, binding was characterised by a dissociation constant (Kd) of 19.5 nM.

B26: Ie_S2_P3E.2_K3.1_C3.2_H3.1_[+2TTT]_A3.1_F3.1_T3.2 (ssRNA)
RNA: B22 RNA with C32U, C34U
B26 yielded a Kd of 10.7 nM.

B27: Ie_S2_P3E.2_K3.1_C3.2_H3.1_[+4CTT]_A3.1_F3.1_T3.2 (ssRNA)
RNA: B22 RNA with C32U, U33A, A36U
Molecule B27 gave a Kd of 1.08 nM.

B28: Ie_S2_P3E.2_K3.1_C3.2_H3.1_[+2TCT]_A3.1_F3.1_T3.2 (ssRNA)
RNA: B22 RNA with C32U, U33C, C34U
Molecule B28 yielded a Kd of 15.5 nM.

B29: Ie_S2_P3E.2_K3.1_C3.2_H3.1_[+3CCC]_A3.1_F3.1_T3.2 (ssRNA)
RNA: B22 RNA with C32U, U33C, U35C
B29 yielded a Kd of 13.5 nM.

B30: Ie_S2_P3E.2_K3.1_C3.2_H3.1_[+4CCT]_A3.1_F3.1_T3.2 (ssRNA)
RNA: B22 RNA with C32U, U33A, U35C, A36U
Turning to B30, the equilibrium dissociation constant (Kd) turned out to be 1.4 nM.

B31: Ie_S2_P3E.2_K3.1_C3.2_H3.1_A3.1_F3.1_[+7CTC]_T3.2 (ssRNA)
RNA: B22 RNA with C32U, U33A, C34U, U35A, A36U, U37C, A38U, U39C
In the case of B31, the Kd stood at 14 nM. This Kd lies about 10-fold higher than the previous one.

B32: Ie_S2_P3E.2_K3.1_C3.2_H3.1_[+2CTT]_A3.1_F3.1_T3.2 (ssRNA)
RNA: B22 RNA with C34U
Molecule B32 came in with a Kd of 65.6 nM.

B33: Ie_S2_P3E.2_K3.1_C3.2_H3.1_[+2TCC]_A3.1_F3.1_T3.2 (ssRNA)
RNA: B22 RNA with C32U, U33C
For B33, binding was characterised by a dissociation constant (Kd) of 9.73 nM.

B34: Ie_S2_P3E.2_K3.1_C3.2_H3.1_[+2TTC]_A3.1_F3.1_T3.2 (ssRNA)
RNA: B22 RNA with C32U
Molecule B34 gave a Kd of 6.23 nM.

B35: Ie_S2_P3E.2_K3.1_C3.2_H3.1_[+3CTC]_A3.1_F3.1_T3.2 (ssRNA)
RNA: B22 RNA with C32U, U33C, C34U, U35C
Regarding B35, binding was characterised by a dissociation constant (Kd) of 17.3 nM.

B36: Ic_S2_P3E.1_K3.1_C3.1_H3.1_A3.1_[A6T]_F3.1_[T7C]_T3.1 (ssRNA)
RNA: UUUGAUUAAUAUGAUAUCGUUCUUUCUUGUAUUCAUUCUUUCUCGAUAUCAUAUUAAUCUUU
As to B36, the affinity, expressed as Kd, was 114 nM.

B37: Ic_S2_P3E.1_K3.1_C3.1_H3.1_A3.1_[A6C]_F3.1_[T7A]_T3.1 (ssRNA)
RNA: B36 RNA with U33C, C34A
In the case of B37, binding was put at a Kd of 107 nM.

B38: Ic_S2_P3E.1_K3.1_C3.1_H3.1_A3.1_[A6T]_F3.1_[T7A]_T3.1 (ssRNA)
RNA: B36 RNA with C34A
For the molecule B38, the Kd amounted to 56.9 nM.

B39: Ic_S2_P3E.1_K3.1_C3.1_H3.1_A3.1_[T5C]_F3.1_[A8G]_T3.1 (ssRNA)
RNA: B36 RNA with U32C, U33A, C34U, A35G
For B39, the Kd was determined as 10.4 nM.

B40: Ie_S2_P3E.2_K3.1_C3.2_H3.1_[+2CTCTC]_A3.1_F3.1_T3.2 (ssRNA)
RNA: UUUGAUUAAUAUGAUAUCGUUCUUUCUCUUGCUCUCUAUAUAUAUUCUUUCUCGAUAUCAUAUUAAUCUUU
The molecule B40 returned a Kd of 61.8 nM.

B41: Ie_S2_P3E.2_K3.1_C3.2_H3.1_[+3CTCTC]_A3.1_F3.1_T3.2 (ssRNA)
RNA: B40 RNA with C32U, U33C, C34U, U35C, C36U, U37C
B41 showed a Kd of 76.4 nM.

B42: Ie_S2_P3E.2_K3.1_C3.2_H3.1_[+2CCTCT]_A3.1_F3.1_T3.2 (ssRNA)
RNA: B40 RNA with U33C, C34U, U35C, C36U
For the molecule B42, the Kd was 112 nM.

B43: Ie_S2_P3E.2_K3.1_C3.2_H3.1_[+2TTCCT]_A3.1_F3.1_T3.2 (ssRNA)
RNA: B40 RNA with C32U, U35C, C36U
In the case of B43, the Kd is 16.3 nM. This Kd lies about 6.9-fold lower than the previous one.

B44: Ie_S2_P3E.2_K3.1_C3.2_H3.1_[+3CCCTT]_A3.1_F3.1_T3.2 (ssRNA)
RNA: B40 RNA with C32U, U33C, U35C, C36U
Molecule B44 had a Kd of 35.7 nM. This Kd is about 2.2-fold higher than that of the molecule before.

B45: Ie_S2_P3E.2_K3.1_C3.2_H3.1_[+4CCCTT]_A3.1_F3.1_T3.2 (ssRNA)
RNA: B40 RNA with C32U, U33A, U35C, A38U
Regarding B45, the Kd came out at 6.09 nM.

B46: Ie_S2_P3E.2_K3.1_C3.2_H3.1_[+3TTCCT]_A3.1_F3.1_T3.2 (ssRNA)
RNA: B40 RNA with C32U, C34U, U35C
B46: the affinity, expressed as Kd, was 19.1 nM.

B47: Ie_S2_P3E.2_K3.1_C3.2_H3.1_[+2TCTCT]_A3.1_F3.1_T3.2 (ssRNA)
RNA: B40 RNA with C32U, U33C, C34U, U35C, C36U
B47 yielded a Kd of 21.5 nM.

The values above are taken from article PMC9352680, “A comprehensive thermodynamic model for RNA binding by the Saccharomyces cerevisiae Pumilio protein PUF4”.
